# Data taken from PMC11524475.
# Target: NbNRC2-6xHis-3xFLAG, affinity-purified from N. benthamiana leaves (Nicotiana benthamiana)
# Experiment: SEC; purified NbNRC2-6xHis-3xFLAG on Superdex 200 Increase 10/300 GL, 25 mM Tris-HCl pH 8, 500 mM NaCl, 5% glycerol, 1 mM EDTA, 4°C; size estimated from a protein standard curve
substance,measurement,value
"NbNRC2-6xHis-3xFLAG, affinity-purified from N. benthamiana leaves (natural protein)",stoichiometry N,2
